Laboratory results taken from patent US20090291439.

Chain of Akt1 (P31749 whole entry): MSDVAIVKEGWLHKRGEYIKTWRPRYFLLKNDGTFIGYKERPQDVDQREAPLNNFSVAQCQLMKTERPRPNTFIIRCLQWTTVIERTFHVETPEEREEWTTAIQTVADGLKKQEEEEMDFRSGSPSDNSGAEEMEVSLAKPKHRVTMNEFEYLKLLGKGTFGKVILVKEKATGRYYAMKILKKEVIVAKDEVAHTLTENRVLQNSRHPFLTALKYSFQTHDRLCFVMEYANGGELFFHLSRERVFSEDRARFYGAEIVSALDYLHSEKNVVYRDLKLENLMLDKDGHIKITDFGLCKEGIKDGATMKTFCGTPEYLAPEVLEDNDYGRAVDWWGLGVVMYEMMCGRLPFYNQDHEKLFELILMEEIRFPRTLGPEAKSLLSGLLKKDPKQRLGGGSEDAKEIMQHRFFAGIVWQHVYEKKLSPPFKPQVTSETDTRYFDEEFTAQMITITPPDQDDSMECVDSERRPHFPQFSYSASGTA

B1: human DUSP13 protein (protein)
chain: MDSLQKQDLRRPKIHGAVQASPYQPPTLASLQRLLWVRQAATLNHIDEVWPSLFLGDAYAARDKSKLIQLGITHVVNAAAGKFQVDTGAKFYRGMSLEYYGIEADDNPFFDLSVYFLPVARYIRAALSVPQGRVLVHCAMGVSRSATLVLAFLMICENMTLVEAIQTVQAHRNICPNSGFLRQLQVLDNRLGRETGRF
dephosphorylation of phosphorylated Ser-473 (FIG. 15, right, second panel from the top) (Akt1): directly dephosphorylates the phosphorylated Ser-473 thereof | dephosphorylation of phosphorylated Ser-473 (FIG. 15, right, second panel from the top) (Akt2): directly dephosphorylates the phosphorylated Ser-473 thereof
